Patent US20060062783A1

Molecular target: T1, Rat PTH (1-84) (rat)
T1 sequence (peptide): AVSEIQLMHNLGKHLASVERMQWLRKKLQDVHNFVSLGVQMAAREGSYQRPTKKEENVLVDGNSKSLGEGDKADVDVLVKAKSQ
Test: ELISA on coated peptide; B cell supernatant

OD: 0.19 OD450
B1: anti-PTH mAb 168 (antibody, human IgG2, V domains shown)
VH: EVQLVQSGAEVKKPGESLKISCKGSRYIFTNYWIGWVRQMPGKGLEWMGIIYPGDSDTRYSPSFQGQVTISADMSISTAYLQWSSLKASDTAMYYCARQGDYVWGSFDSWGQGTLVTVSS
VL: DIVMTQTPLSLSVTPGQPASISCKSSQSLLDSDGKTYLYWYLQKPGQPPQLLIYEVSNRFSGVPDRFSGSGSGTDFTLKISRVEAEDVGVYYCMQSIQLWTFGQGTKVEIK
